The values below are quoted from earlier work in article PMC11996608.

For the series, the target named is core RNA polymerase (Escherichia coli) (UniProt P0A7Z4).

Chain of RapA (P60240 2-968): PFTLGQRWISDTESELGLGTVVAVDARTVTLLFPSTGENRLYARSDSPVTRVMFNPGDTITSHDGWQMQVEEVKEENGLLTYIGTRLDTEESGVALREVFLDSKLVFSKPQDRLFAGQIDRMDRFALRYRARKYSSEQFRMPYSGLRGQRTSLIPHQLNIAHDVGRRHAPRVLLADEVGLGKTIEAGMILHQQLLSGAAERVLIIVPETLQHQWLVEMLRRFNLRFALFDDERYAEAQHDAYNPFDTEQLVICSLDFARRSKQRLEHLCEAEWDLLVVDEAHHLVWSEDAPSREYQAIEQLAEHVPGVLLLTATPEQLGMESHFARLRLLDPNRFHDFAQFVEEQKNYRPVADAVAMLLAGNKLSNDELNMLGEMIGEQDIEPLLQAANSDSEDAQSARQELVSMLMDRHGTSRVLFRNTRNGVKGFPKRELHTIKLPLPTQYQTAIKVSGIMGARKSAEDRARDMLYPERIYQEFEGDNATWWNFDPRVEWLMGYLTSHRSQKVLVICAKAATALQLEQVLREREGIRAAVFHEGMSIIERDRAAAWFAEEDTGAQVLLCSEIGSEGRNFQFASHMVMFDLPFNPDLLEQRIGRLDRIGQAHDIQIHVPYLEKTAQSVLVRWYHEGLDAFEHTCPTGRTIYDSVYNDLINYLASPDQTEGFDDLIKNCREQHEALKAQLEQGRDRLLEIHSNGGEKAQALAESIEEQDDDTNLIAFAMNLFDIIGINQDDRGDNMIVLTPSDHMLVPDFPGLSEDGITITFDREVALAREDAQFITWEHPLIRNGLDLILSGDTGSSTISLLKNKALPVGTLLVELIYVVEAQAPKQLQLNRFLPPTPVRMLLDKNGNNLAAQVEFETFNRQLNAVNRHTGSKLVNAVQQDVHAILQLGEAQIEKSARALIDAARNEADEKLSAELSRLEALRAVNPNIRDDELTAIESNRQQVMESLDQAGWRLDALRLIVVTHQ

By Kd is commonly meant a measure of binding affinity in units of concentration. Take RapA (from UniProt P60240): the Kd is 7.5 nM.
